# Data taken from the supplement of paper PMC9112550, “Optimization of the antimicrobial peptide Bac7 by deep mutational scanning” (BMC Biology, 2022).
# Test system: Escherichia coli TOP10
# Test: shrunken log2 fold change of peptide-encoding DNA abundance (4.5 h post-induction vs induction); higher = less antimicrobial activity (less host growth inhibition)
# Details: time post-induction: 4.5 h; library: site-saturation at positions 5, 18, 19, 20
# 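Note: peptides expressed intracellularly from a pBAD plasmid library in pooled LB shake-flask culture, induced with 0.3% L-arabinose, DNA abundance read by NGS, three biological replicates, DESeq2 with apeglm shrinkage.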
row,Sequence,shrunken log2 fold change
1,RRIRCRPPRLPRPRPRPLMNPRP,-0.645
2,RRIRFRPPRLPRPRPRPQKYPRP,-0.864
3,RRIRARPPRLPRPRPRPRRAPRP,0.831
4,RRIRRRPPRLPRPRPRPFEHPRP,-0.0715
5,RRIRYRPPRLPRPRPRPTFIPRP,-0.0922
6,RRIRLRPPRLPRPRPRPMLIPRP,-0.0317
7,RRIRQRPPRLPRPRPRPWHPPRP,-0.0543
8,RRIRQRPPRLPRPRPRPIMAPRP,-0.0123
9,RRIRSRPPRLPRPRPRPGCDPRP,0.332
10,RRIRARPPRLPRPRPRPSYIPRP,-0.647
11,RRIRPRPPRLPRPRPRPKGEPRP,0.125
12,RRIRCRPPRLPRPRPRPGLEPRP,0.203
13,RRIRCRPPRLPRPRPRPHFTPRP,-0.677
14,RRIRRRPPRLPRPRPRPTREPRP,0.892
15,RRIRKRPPRLPRPRPRPGGYPRP,0.61
16,RRIRTRPPRLPRPRPRPPNWPRP,0.845
17,RRIRHRPPRLPRPRPRPIHRPRP,-0.147
18,RRIRDRPPRLPRPRPRPFYVPRP,-0.0754
19,RRIRHRPPRLPRPRPRPPPVPRP,0.658
20,RRIRCRPPRLPRPRPRPCETPRP,0.0192
21,RRIRGRPPRLPRPRPRPIMMPRP,-0.0902
22,RRIRLRPPRLPRPRPRPPNNPRP,-0.106

row,Sequence,shrunken log2 fold change
1,RRIRARPPRLPRPRPRPLGNPRP,0.0331
2,RRIRNRPPRLPRPRPRPHCLPRP,-0.466
3,RRIRMRPPRLPRPRPRPSYEPRP,-0.293
4,RRIRERPPRLPRPRPRPEGVPRP,0.172
5,RRIRCRPPRLPRPRPRPPTKPRP,0.108
6,RRIRERPPRLPRPRPRPDTYPRP,0.0491
7,RRIRERPPRLPRPRPRPQVIPRP,-0.125
8,RRIRKRPPRLPRPRPRPNVKPRP,0.0115
9,RRIRTRPPRLPRPRPRPYMYPRP,-0.767
10,RRIRLRPPRLPRPRPRPFIFPRP,-0.356
11,RRIRYRPPRLPRPRPRPGTMPRP,-0.139
12,RRIRMRPPRLPRPRPRPKYMPRP,0.00659
13,RRIRFRPPRLPRPRPRPIKWPRP,-0.101
14,RRIRMRPPRLPRPRPRPCKQPRP,0.0203
15,RRIRYRPPRLPRPRPRPAASPRP,-0.0616
16,RRIRKRPPRLPRPRPRPSGHPRP,-0.0496
17,RRIRDRPPRLPRPRPRPHMAPRP,-0.232
18,RRIRKRPPRLPRPRPRPLVMPRP,0.432
19,RRIRHRPPRLPRPRPRPQRHPRP,0.0629
20,RRIRYRPPRLPRPRPRPAKKPRP,0.0499
21,RRIRPRPPRLPRPRPRPLSYPRP,0.0626
22,RRIRPRPPRLPRPRPRPLYCPRP,-0.548

row,Sequence,shrunken log2 fold change
1,RRIRARPPRLPRPRPRPNNKPRP,-0.29
2,RRIRNRPPRLPRPRPRPHKVPRP,-0.513
3,RRIRQRPPRLPRPRPRPQLPPRP,-0.23
4,RRIRPRPPRLPRPRPRPFSWPRP,-0.0698
5,RRIRSRPPRLPRPRPRPFTEPRP,-0.0824
6,RRIRSRPPRLPRPRPRPNPLPRP,0.182
7,RRIRARPPRLPRPRPRPNHTPRP,-0.605
8,RRIRCRPPRLPRPRPRPWPPPRP,1.08
9,RRIRIRPPRLPRPRPRPPCWPRP,0.836
10,RRIRHRPPRLPRPRPRPYAPPRP,-0.737
11,RRIRERPPRLPRPRPRPFVLPRP,-0.358
12,RRIRKRPPRLPRPRPRPQEHPRP,0.0487
13,RRIRERPPRLPRPRPRPYILPRP,-2.27
14,RRIRQRPPRLPRPRPRPWQQPRP,-0.333
15,RRIRNRPPRLPRPRPRPTSAPRP,0.163
16,RRIRDRPPRLPRPRPRPCCYPRP,0.503
17,RRIRQRPPRLPRPRPRPWKTPRP,-0.0168
18,RRIRMRPPRLPRPRPRPSWDPRP,0.709
19,RRIRDRPPRLPRPRPRPMRMPRP,0.199
20,RRIRHRPPRLPRPRPRPHNEPRP,-0.458
21,RRIRARPPRLPRPRPRPCNIPRP,-0.671
22,RRIRNRPPRLPRPRPRPNLTPRP,-0.335

row,Sequence,shrunken log2 fold change
1,RRIRMRPPRLPRPRPRPKWRPRP,0.797
2,RRIRGRPPRLPRPRPRPRCDPRP,0.629
3,RRIRKRPPRLPRPRPRPQPWPRP,0.805
4,RRIRTRPPRLPRPRPRPVPVPRP,0.0547
5,RRIRNRPPRLPRPRPRPIKNPRP,-0.108
6,RRIRTRPPRLPRPRPRPVSQPRP,0.0169
7,RRIRSRPPRLPRPRPRPFEYPRP,-0.115
8,RRIRRRPPRLPRPRPRPYPDPRP,-0.0558
9,RRIRSRPPRLPRPRPRPELHPRP,0.249
10,RRIRCRPPRLPRPRPRPVLVPRP,-0.0168
11,RRIRIRPPRLPRPRPRPRHHPRP,-0.408
12,RRIRSRPPRLPRPRPRPNLWPRP,-0.075
13,RRIRWRPPRLPRPRPRPKIKPRP,-0.0556
14,RRIRCRPPRLPRPRPRPLKDPRP,-0.0917
15,RRIRERPPRLPRPRPRPRCHPRP,-0.464
16,RRIRARPPRLPRPRPRPIACPRP,0.0285
17,RRIRKRPPRLPRPRPRPGIFPRP,0.409
18,RRIRMRPPRLPRPRPRPPWGPRP,0.686
19,RRIRIRPPRLPRPRPRPCAMPRP,-0.424
20,RRIRWRPPRLPRPRPRPFIRPRP,0.0247
21,RRIRMRPPRLPRPRPRPINRPRP,-0.0561
22,RRIRMRPPRLPRPRPRPNAVPRP,0.0414

row,Sequence,shrunken log2 fold change
1,RRIRHRPPRLPRPRPRPWCGPRP,-0.181
2,RRIRNRPPRLPRPRPRPSDFPRP,-0.00477
3,RRIRQRPPRLPRPRPRPHDYPRP,-0.00281
4,RRIRRRPPRLPRPRPRPFDSPRP,-0.21
5,RRIRFRPPRLPRPRPRPDGQPRP,-0.0411
6,RRIRIRPPRLPRPRPRPIHTPRP,-0.907
7,RRIRLRPPRLPRPRPRPFGIPRP,-0.255
8,RRIRVRPPRLPRPRPRPGPVPRP,0.287
9,RRIRQRPPRLPRPRPRPFSKPRP,-0.218
10,RRIRDRPPRLPRPRPRPTYPPRP,-0.106
11,RRIRVRPPRLPRPRPRPITIPRP,-0.0236
12,RRIRCRPPRLPRPRPRPYEFPRP,-0.0684
13,RRIRHRPPRLPRPRPRPPIAPRP,-0.0868
14,RRIRFRPPRLPRPRPRPDYSPRP,-0.458
15,RRIRVRPPRLPRPRPRPNLPPRP,0.232
16,RRIRARPPRLPRPRPRPAVKPRP,0.233
17,RRIRARPPRLPRPRPRPARWPRP,0.95
18,RRIRIRPPRLPRPRPRPSTHPRP,-1.02
19,RRIRERPPRLPRPRPRPQWLPRP,-0.168
20,RRIRLRPPRLPRPRPRPSEVPRP,-0.396
21,RRIRKRPPRLPRPRPRPQDSPRP,-0.017
